The values that follow come from PMC10577170 (2023).

Assay [1] addresses T1, CSPG4 (chondroitin sulfate proteoglycan 4) peptide on HLA-C*07:01 (human).
T1 peptide: HIIFPHGSL
The experiment in a line: killing.

Assay [2] addresses T2, CSPG4 (chondroitin sulfate proteoglycan 4) peptide on HLA-C*07:02 (human).
T2 peptide: PHIIFPHGSL
The experiment in a line: cytokine release.

In assay [3] the target is T3, CSPG4 (chondroitin sulfate proteoglycan 4) peptide on HLA-C*07:02 (human).
T3 peptide: HIIFPHGSL
The experiment in a line: cytokine release.

B1: 2Cα-11Cβ cTCR (TCR)
alpha TRAV35*02 TRAJ34*01 CDR3: CAGSYNTDKLIF
beta TRBV28*01 TRBJ2-2*01 CDR3: CASSYDWGGELFF
On to B1, for which the binding result in assay [1] is “recognises”.

B2: 11Cα-2Cβ cTCR (TCR)
alpha TRAV12-2*02 TRAJ45*01 CDR3: CAVNAAGGGADGLTF
beta TRBV3-1*01 TRBJ2-1*01 CDR3: CASSQGWTRNEQFF
B2: the binding result in assay [1] is on record as “no recognition”.

B3: 11C/73 TCR (TCR)
alpha TRAV12-2*02 TRAJ45*01 CDR3: CAVNAAGGGADGLTF
beta TRBV28*01 TRBJ2-2*01 CDR3: CASSYDWGGELFF
As for B3, the binding result in assay [1] was “recognises”; in assay [2], “no recognition”; in assay [3], “no recognition”.

B4: 2C/165 TCR (TCR)
alpha TRAV35*02 TRAJ34*01 CDR3: CAGSYNTDKLIF
beta TRBV3-1*01 TRBJ2-1*01 CDR3: CASSQGWTRNEQFF
Consider B4, for which the binding result is “recognises” in assay [1], “no recognition” in assay [2] and “no recognition” in assay [3].
